From US20250228955A1 (ALBERT EINSTEIN COLLEGE OF MEDICINE, published 2025) come the findings set out here.

By Kd is commonly meant a measure of binding affinity in units of concentration. The term koff denotes the rate constant with which the complex falls apart. The kon is the second-order rate constant of association. In general, EC50 (read off the curve) refers to the midpoint of the concentration-response curve.

Test [1] deals with T1, recombinant Strep-tagged SARS-CoV-2 trimeric spike (SARS-CoV-2, UniProt P0DTC2 14-1208).
In test [2] the target is T2, human epidermal growth factor receptor (EGFR) (human, UniProt P00533 25-645). As to the kind of experiment: biolayer interferometry.
Test [3] addresses T1, recombinant Strep-tagged SARS-CoV-2 …. The source holds these as a separate data set.
Test [4] addresses T2, human epidermal growth factor receptor ….
The target in test [5] is T1, recombinant Strep-tagged SARS-CoV-2 …. The source holds these as a separate data set.
The target is the same in test [6]. This is another data set of the same source.

Like-named read-outs stand apart in the source and are kept apart here.

B1: VHH-72 (SARS-CoV-2 spike VHH, soluble recombinant) (VHH)
VHH: QVQLQESGGGLVQAGGSLRLSCAASGRTFSEYAMGWFRQAPGKEREFVATISWSGGSTYYTDSVKGRFTISRDNAKNTVYLQMNSLKPDDTAVYYCAAAGLGTVVSEWDYDYDYWGQGTQVTVSS
notes: also called parental VHH-72; VHH 72.58
Regarding B1, in test [1], the Kd was 460 nM, the koff is 0.0364 s⁻¹ and the kon was found to be 79200 M⁻¹ s⁻¹. Also, the binding result in test [2] was “no binding”.

B2: VHH-72-A56R fusion (VHH-72 fused to vaccinia virus (VACV) A56R for rVACV display) (VHH)
VHH: B1 VHH
In the case of B2, the “EC50 (read off the curve)” value in test [3] was approximately 0.07 µg/mL.

B3: ODIN-8 (VHH-72.58 with UL-CDR3 from 60H05 bovine IgG in FR2 loop) (bispecific antibody, V domains shown)
VH: MGWFRQNKLKSCPDGYTSGVECRFRGYTCANDGCWRVCSFTTCSGWMPASDTYRREFVATISWSGGSTYYTDSVKGRFTISRDNAKNTVYLQMNSLKPDDTAVYYCAAAGLGTVVSEWDYDYDYWGQGTQVTVSS
Take B3: in test [4], binding was put at a Kd of 11.4 nM, the koff is 0.00103 s⁻¹ and the kon was 90500 M⁻¹ s⁻¹. Further, in test [5], the Kd amounted to 76.4 nM, the koff is 0.012 s⁻¹ and the kon was 158000 M⁻¹ s⁻¹.

B4: ODIN-1-A56R fusion (ODIN-1 fused to vaccinia virus (VACV) A56R for rVACV display) (bispecific antibody, V domains shown)
VH: MGWFRQTNKKECPEDYTYNPRCPQQYGWSDCDCMGDRFGGYCRQDGCSNYIHRSTREFVATISWSGGSTYYTDSVKGRFTISRDNAKNTVYLQMNSLKPDDTAVYYCAAAGLGTVVSEWDYDYDYWGQGTQVTVSS
B4: the entries for the “EC50 (read off the curve)” value in test [3] and in test [6] were approximately 0.06 µg/mL and approximately 0.2 µg/mL, respectively.
